The target of this assay is human hormone-sensitive lipase (HSL), adipocyte isoform (human). In words: cryo-EM structure.

One may read the stoichiometry N as a count of units in the complex or per binding partner. The substance “human hormone-sensitive lipase (HSL), adipocyte isoform (enzyme)” registered a stoichiometry N of 2.

These data come from article PMC11993637.
